The supplement of paper PMC10126150
± gives the standard deviation of the averaged measurements.

Test system: ATP
Experiment: switch fluorescence ratio, 500 uM ATP over buffer (Cy3 cluster intensity, sum of 5 cycles each) (fold (ratio)); higher = stronger signal-on switching upon ATP binding; sequences stand for … in TCGTCGGCAGCGTCAGATGTGTATAAGAGACAGTTTTTTTTTTTTTTTTTTTTTTTTT…TC
Settings: aptamer strand: ATP DNA aptamer (quencher-CACCTGGGGGAGTATTGCGGAGGAAGG + anchor), 100 nM annealed; ATP concentration: 500 uM
Procedure, shortened: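 Values give the fluorescence ratio for each switch-domain sequence, averaged from per-cluster ratios of summed target-cycle to summed buffer-cycle Cy3 intensity. The Cy3-labelled switching-strand clusters sat on a modified Illumina MiSeq flow-cell, were annealed to 100 nM quencher-labelled ATP aptamer, and were imaged in selection buffer, then after 15 min with 500 uM ATP at 22 °C. Five cycles ran with NaOH stripping and re-annealing between them, and clusters outside 100-1000 RFU were excluded.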
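Also: ATP exposure 15 min at 22 °C before imaging.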

| Sequence | switch fluorescence ratio |
| --- | --- |
| GGGACTGGTA | 1 ± 0.049 |
| GAAGTTTGTA | 0.992 ± 0.022 |
| CGTTACGAGC | 1.04 ± 0.059 |
| GGATAACGGG | 1.02 ± 0.023 |
| TTTTGGCCGT | 1.1 ± 0.15 |
| TTTTTGGTAT | 1.01 ± 0.047 |
| AAAGGTGGCG | 1.07 ± 0.19 |
| GGGATAATTA | 1.01 ± 0.029 |
| TGGAGTAAAA | 1.03 ± 0.053 |
| GGGTTTCGTT | 0.99 ± 0.05 |
| TTGGCTTGGG | 1.01 ± 0.043 |
| TGGCGTCTGA | 1 ± 0.013 |
| AGGTACAGAC | 1.12 ± 0.024 |
| GTGCACGTTG | 1.01 ± 0.019 |
| AGACTGATGA | 1.01 ± 0.014 |
| AAGCCAAGGT | 1.033 ± 0.0084 |
| ATGTCGGCTT | 1.03 ± 0.018 |
| GGCTTGGAAA | 0.973 ± 0.011 |
| GCTTTAGGTA | 0.9843 ± 0.0058 |
| TGTCCGTTGG | 1.05 ± 0.084 |
| ATCATGGCAC | 1.04 ± 0.025 |
| AATGACGATG | 1.02 ± 0.029 |
| TGTTGTGTGG | 1.02 ± 0.027 |

| Sequence | switch fluorescence ratio |
| --- | --- |
| TTTGGGATCT | 0.9881 ± 0.0098 |
| AATTTTTTGA | 0.972 ± 0.033 |
| TGTGAAAATT | 1.01 ± 0.051 |
| ATTTTTGGCA | 0.995 ± 0.033 |
| TAGGGGCGAT | 1.01 ± 0.032 |
| TTTTCCTGCT | 1.07 ± 0.082 |
| GGGGCGATTG | 1.02 ± 0.013 |
| TGGCTTGCG | 1.01 ± 0.04 |
| TAGTGGGGCC | 1.01 ± 0.019 |
| TTTGAATTCG | 1.009 ± 0.0022 |
| TTGATCGGGC | 1.03 ± 0.052 |
| AGACGAGGAA | 1.03 ± 0.058 |
| TTGTGCGCAG | 1 ± 0.029 |
| ACGTCGGAG | 0.995 ± 0.046 |
| TTTTCGACTA | 0.97 ± 0.043 |
| TTTAGGGGTT | 1.02 ± 0.083 |
| ACTGCCCGGC | 1.1 ± 0.12 |
| CTAAATATAT | 1.03 ± 0.013 |
| AGTTATTAAT | 1.06 ± 0.054 |
| TTAGAAAGCA | 1 ± 0.033 |
| ATGAGTTGTA | 1.01 ± 0.012 |
| AGTGGGATTT | 0.993 ± 0.039 |
| GGTGCTAGCG | 1.0247 ± 0.00089 |

| Sequence | switch fluorescence ratio |
| --- | --- |
| ATTACTTTTC | 1.006 ± 0.0057 |
| GCGTTGTCTG | 0.982 ± 0.068 |
| ACTGGTCGCC | 0.992 ± 0.015 |
| GCACGGTACG | 1 ± 0.031 |
| TAGATGGGGG | 1 ± 0.011 |
| GCCTTACATT | 1.01 ± 0.039 |
| TCTCTTCAGC | 1 ± 0.0026 |
| CAAAGGGGCG | 0.975 ± 0.045 |
| TTGTTTTTAG | 0.988 ± 0.04 |
| AGGAATAAA | 0.976 ± 0.052 |
| CGAAACATGA | 1.01 ± 0.014 |
| CAACGGGTTT | 0.997 ± 0.051 |
| GAACAGTCCG | 1.051 ± 0.0039 |
| AATAAGATTG | 0.987 ± 0.022 |
| GCGATGTGGT | 1.01 ± 0.012 |
| GGGCCCGGCA | 0.9814 ± 0.0049 |
| TTATCGGCGC | 0.999 ± 0.014 |
| CAAAGGAGGC | 1.01 ± 0.048 |
| TTTTGCTGTA | 1.04 ± 0.099 |
| TTTCGTCGAA | 1.017 ± 0.01 |
| CGAATTGGTG | 1.03 ± 0.04 |
| CATAAGCCTC | 1.03 ± 0.056 |
| TCGGGTTGAG | 1.01 ± 0.067 |

| Sequence | switch fluorescence ratio |
| --- | --- |
| TAAGGTAGG | 0.967 ± 0.029 |
| GGCAGATGAC | 0.9674 ± 0.0031 |
| AATAGTTCTG | 0.951 ± 0.043 |
| GACGGTTTTT | 1.01 ± 0.024 |
| AGATCTTGTA | 0.991 ± 0.065 |
| CGGGATATGA | 1.03 ± 0.028 |
| TTAAAATGCT | 0.978 ± 0.011 |
| ATCGTGTGAG | 1.02 ± 0.015 |
| TTGCAGGGTG | 1.17 ± 0.035 |
| TTTGAGGGGG | 1.01 ± 0.066 |
| GACATGGGGC | 1.04 ± 0.058 |
| GGGCCTGGGG | 0.998 ± 0.048 |
| CAGGGTGTGG | 0.976 ± 0.014 |
| TTAAGTTAGG | 1.02 ± 0.012 |
| TGTGACCGAA | 0.9794 ± 0.0017 |
| CCGTGAGGTG | 1.135 ± 0.01 |
| TTGGGAAATT | 1.02 ± 0.04 |
| TGGGGTACTT | 0.973 ± 0.027 |
| TTAAGAGACG | 1.06 ± 0.07 |
| TGCCCCTTTT | 0.98 ± 0.013 |
| TGGTTTAGTG | 0.976 ± 0.031 |
| AACCCAATTT | 0.985 ± 0.015 |
| TGGGTTAGCG | 0.995 ± 0.041 |

| Sequence | switch fluorescence ratio |
| --- | --- |
| TGGTCTATTT | 0.965 ± 0.019 |
| GCCGCATTGA | 2.01 ± 0.11 |
| CATAGATCTG | 1.01 ± 0.028 |
| ATTTTATATT | 1.02 ± 0.032 |
| AACCAGTGAT | 1.05 ± 0.017 |
| TTGAATGGTC | 0.979 ± 0.081 |
| CGTCACCATG | 1.037 ± 0.0026 |
| ACACCTAAAC | 1.065 ± 0.0096 |
| AGGAAAAAAA | 2.85 ± 2.6 |
| AGTTTTGCTC | 0.981 ± 0.012 |
| GATGATCTAT | 1.01 ± 0.035 |
| ACGGGGGTAG | 0.989 ± 0.022 |
| TGATTGGAGG | 0.994 ± 0.038 |
| ATATCTGCTT | 0.978 ± 0.035 |
| TATTAATCTT | 1.02 ± 0.014 |
| TTTGTTTCGA | 1.05 ± 0.11 |
| GAGCCTGGTT | 0.967 ± 0.035 |
| CGTTTGGCAG | 1.019 ± 0.0025 |
| TGATTCAAAG | 1.01 ± 0.035 |
| AGCTTCGGAC | 1.35 ± 0.12 |
| CAAGTATCGG | 0.973 ± 0.027 |
| ACGCATTGGT | 1.188 ± 0.0086 |
| AATGGAACGG | 1.02 ± 0.032 |

| Sequence | switch fluorescence ratio |
| --- | --- |
| GAGGGACTCT | 0.964 ± 0.013 |
| TCGCGGCAAT | 3.06 ± 2.3 |
| CTTAGGGGTA | 0.999 ± 0.043 |
| CGGCTGGACG | 0.958 ± 0.047 |
| ACGTCAAAAC | 2.91 ± 0.41 |
| CCGGGCGGAT | 1.02 ± 0.0099 |
| TTCTGGTTGT | 0.987 ± 0.046 |
| ATTTTGAGGA | 1.02 ± 0.015 |
| ACTGTTTTCT | 1.05 ± 0.02 |
| GATGTGCGAG | 1.01 ± 0.017 |
| GTTAGTACTA | 1 ± 0.038 |
| TGTTAATTGA | 1.01 ± 0.015 |
| GGGGACTGGG | 1 ± 0.058 |
| TGTGGCGTAT | 1.011 ± 0.0014 |
| TAGATGTAAC | 0.975 ± 0.029 |
| AAAGTAGTGT | 1.024 ± 0.004 |
| GGGTTAACTT | 0.999 ± 0.046 |
| TAGGCGCTAG | 0.999 ± 0.011 |
| TATGGACA | 1.05 ± 0.01 |
| TAGTCCTATG | 0.969 ± 0.021 |
| AGATATTCCG | 0.987 ± 0.02 |
| GGCGTTGTCC | 1.02 ± 0.044 |
| TTTGTTAGGC | 0.991 ± 0.029 |

| Sequence | switch fluorescence ratio |
| --- | --- |
| TTGGATAGGT | 0.981 ± 0.027 |
| TGGGATGATG | 1.008 ± 0.0095 |
| TTTACGGCGG | 0.987 ± 0.021 |
| TCTCAAGTGG | 0.992 ± 0.031 |
| GAGCGGCGGG | 0.996 ± 0.026 |
| CGATGGGGGC | 0.957 ± 0.068 |
| ACAGTGCTGC | 0.978 ± 0.012 |
| AGGGTATAGA | 0.987 ± 0.01 |
| ATCGATTATC | 0.988 ± 0.021 |
| TGGCTGTGGG | 0.991 ± 0.016 |
| TTTAGTAAAC | 1.08 ± 0.11 |
| TTAAAAGTAG | 1 ± 0.058 |
| GAACTACAGG | 0.987 ± 0.041 |
| AAGTTGATTA | 1.006 ± 0.004 |
| ATCAGCGCGG | 1.013 ± 0.0027 |
| GTTGGATTTA | 1.006 ± 0.0077 |
| TGTAAGGTGA | 1.03 ± 0.022 |
| ATCGATTGAT | 1.02 ± 0.011 |
| GGATGCATAT | 0.9894 ± 0.0044 |
